Measurements taken from patent US20200385463A1 (LANOVA MEDICINES, published 2020).

Columns and labels:
[1] = target: Human claudin 18.2 (CLDN18.2), wild-type (human); assay: cell-based or functional assay
[2] = target: Human claudin 18.2 (CLDN18.2), wild-type (human); assay: cell-based or functional assay; remark: listed apart in the source

EC50 (pM), ADCC Reporter Bioassay (luciferase; Jurkat effector cells with FcγRIIIa V158 and NFAT response element) [1] [pM]	EC50 (pM), ADCC Reporter Bioassay (luciferase, Jurkat effector cells) [2] [pM]	Binder
15.9		78E8G9G6 chimeric antibody (antibody, V domains shown) VH: QVQLKESGPGLVAPSQSLSITCTVSGFSLISYGVHWVRQPPGKGLEWLGVIWAGGRTNYNSALMSRLSISKDNSKSQVFLKMNSLQTYDTAMYYCARDRYGGNSLDYWGQGTSVTVSS VL: DIVMTQSPSSLTVTAGEKVTMNCRSIQSLLNSGNQKNYLSWYQQKPGQPPKLLIYWASTRESGVPDRFTGSGSGTDFTLTIRSVLDEDLAVYYCQNSYSYPFTFGSGTKLEMK
22.2		4F11E2 chimeric antibody (antibody, V domains shown) VH: DVQLVESGGGLVQPGGSRKLSCAASGFTFSTFGMHWVRQAPEKGLEWVAYITSGNSPIYFTDTVKGRFTISRDNPKNTLFLQMTSLGSEDTAVYYCARSSYYGNSMDYWGQGTSVTVSS VL: DIVMTQSPSSLTVTAGEKVTLTCRSSQSLLNSGNRKNYLTWYQQIPGQPPKLLIYWASTRESGVPDRFTGSGSGTYFTLTISSVQAEDLAVYYCQNAYSYPFTFGSGTKLEKK
79.5		103F6D3 chimeric antibody (antibody, V domains shown) VH: QVQLQQSGAELARPGASVKMSCKASGYTFPTYSIHWLKQGPGQGLEWIGYINPNTIYTNYNQKFKYKTTLTADKSSSTAYIQLSSLTSDDSAVYYCAREGYGRGNAMDYWGQGTSVTVSS VL: DIVMTQSPSSQTVTAGEKVTLSCRSSQSLLNGGNQKNYLTWYQQKPGQPPKLLIYWASTRESGVPDRFTGSGSGTYFTFTISSVQAEDLAVYYCQNAYFYPFTFGAGTKLELK
46.3		72C1B6A3 chimeric antibody (antibody, V domains shown) VH: QVQLQQSGGELVKPGASVKMSCKAFGYTFTTYPIEWMKQNHGKSLEWIGNFHPYNDDTKYNEKFKGKAKLTVEKSSSTVYLEVSRLTSDDSAVYYCARRAYGYPYAMDYWGQGTSVTVSS VL: DIVMTQSPSSLTVTAGEKVTMSCKSSQSLLNSGNQKNYLTWYQQRPGQPPKLLIYRASSRESGVPVRFTGSGSGTDFTLTISSVQAEDLAVYYCQNDYIYPYTFGGGTKLEMN
	414	4F11E2 -HC N55Q-LC S32A (antibody, V domains shown) VH: EVQLVESGGGLVQPGGSLRLSCAASGFTFSTFGMHWVRQAPGKGLEWVSYITSGQSPIYFTDTVKGRFTISRDNAKNSLYLQMNSLRAEDTAVYYCARSSYYGNSMDYWGQGTLVTVSS VL: DIVMTQSPDSLAVSLGERATINCRSSQSLLNAGNRKNYLTWYQQKPGQPPKLLIYWASTRESGVPDRFSGSGSGTDFTLTISSLQAEDVAVYYCQNAYSYPFTFGGGTKLEIK
	114	120B7B2 (HC G57D S104A/LC S32A G97A) (antibody, V domains shown) VH: QVQLVQSGAEVKKPGASVKVSCKASGYTFTGYIIQWVRQAPGQRLEWMGFINPYNDDTKYNEQFKGRVTITRDTSASTAYMELSSLRSEDTAVYYCARAYFGNAFAYWGQGTLVTVSS VL: DIVMTQSPDSLAVSLGERATINCKSSQSLLNAGNQKNYLTWYQQKPGQPPKLLIYWASTRESGVPDRFSGSGSGTDFTLTISSLQAEDVAVYYCQNAYYFPFTFGGGTKLEIK
	238	4F11E2 -HC N55Q-LC N31E (antibody, V domains shown) VH: EVQLVESGGGLVQPGGSLRLSCAASGFTFSTFGMHWVRQAPGKGLEWVSYITSGQSPIYFTDTVKGRFTISRDNAKNSLYLQMNSLRAEDTAVYYCARSSYYGNSMDYWGQGTLVTVSS VL: DIVMTQSPDSLAVSLGERATINCRSSQSLLESGNRKNYLTWYQQKPGQPPKLLIYWASTRESGVPDRFSGSGSGTDFTLTISSLQAEDVAVYYCQNAYSYPFTFGGGTKLEIK
	190	72C1B6A3 (HC WT/LC S32A) (antibody, V domains shown) VH: QVQLVQSGAEVKKPGASVKVSCKASGYTFTTYPIEWVRQAPGQRLEWMGNFHPYNDDTKYNEKFKGRVTITRDTSASTAYMELSSLRSEDTAVYYCARRAYGYPYAMDYWGQGTLVTVSS VL: DIVMTQSPDSLAVSLGERATINCKSSQSLLNAGNQKNYLTWYQQKPGQPPKLLIYRASSRESGVPDRFSGSGSGTDFTLTISSLQAEDVAVYYCQNDYIYPYTFGGGTKLEIK
	148	4F11E2 (HC N55E/LC S32A) (antibody, V domains shown) VH: EVQLVESGGGLVQPGGSLRLSCAASGFTFSTFGMHWVRQAPGKGLEWVSYITSGESPIYFTDTVKGRFTISRDNAKNSLYLQMNSLRAEDTAVYYCARSSYYGNSMDYWGQGTLVTVSS VL: DIVMTQSPDSLAVSLGERATINCRSSQSLLNAGNRKNYLTWYQQKPGQPPKLLIYWASTRESGVPDRFSGSGSGTDFTLTISSLQAEDVAVYYCQNAYSYPFTFGGGTKLEIK
	1650	72C1B6A3-HC WT-LC N31E (antibody, V domains shown) VH: QVQLVQSGAEVKKPGASVKVSCKASGYTFTTYPIEWVRQAPGQRLEWMGNFHPYNDDTKYNEKFKGRVTITRDTSASTAYMELSSLRSEDTAVYYCARRAYGYPYAMDYWGQGTLVTVSS VL: DIVMTQSPDSLAVSLGERATINCKSSQSLLESGNQKNYLTWYQQKPGQPPKLLIYRASSRESGVPDRFSGSGSGTDFTLTISSLQAEDVAVYYCQNDYIYPYTFGGGTKLEIK
	493	120B7B2-HC G57D&S104A-LC-N96E&N31E (antibody, V domains shown) VH: QVQLVQSGAEVKKPGASVKVSCKASGYTFTGYIIQWVRQAPGQRLEWMGFINPYNDDTKYNEQFKGRVTITRDTSASTAYMELSSLRSEDTAVYYCARAYFGNAFAYWGQGTLVTVSS VL: DIVMTQSPDSLAVSLGERATINCKSSQSLLESGNQKNYLTWYQQKPGQPPKLLIYWASTRESGVPDRFSGSGSGTDFTLTISSLQAEDVAVYYCQEGYYFPFTFGGGTKLEIK
126		64G11B4 chimeric antibody (antibody, V domains shown) VH: QVQLHQSGTELVRPGTSVKVSCKASGYAFTNYLLEWVKQRPGQGLEWIGEINPGNGGSNYNEKFKGKATLTADKSSSTAYMQLSSLTSVDSAVYFCARIYYGNSFAYWGQGTLVTVSA VL: DIVMTQSPSSLTVTAGEKVTMNCKSSQSLLNSGNQRNYLTWYQQKPGQPPKLLIYWASTRESGVPDRFTGSGSGTDFTLTISSVQADDLAVYYCQNDYFYPFTFGAGTNLELK
5.81		120B7B2 chimeric antibody (antibody, V domains shown) VH: EVQLQQSGPELVKPGASVKMSCKASGYTFTGYIIQWMKQKPGLGLEWIGFINPYNDGTKYNEQFKGKATLTSDKSSNAAYMELSSLTSEDSAVYYCARAYFGNSFAYWGQGTLVTVSA VL: DIVMTQSPSSLTVTAGEKVTMSCKSSQSLLNSGNQKNYLTWYQQRPGQPPKLLMYWASTRESGVPDRFTGSGSGTDFTLTISSGQAEDLAIYFCQNGYYFPFTFGSGTKLETK
36.8		12F1F4 chimeric antibody (antibody, V domains shown) VH: QVQLKESGPGLVAPSQSLSITCTVSGFSLINYGVSWVRQPPGKGLEWLGVIWGDGNTNYQSALRSRLSIRKDTSKSQVFLKLNSVHTDGTATYYCAKVGRGNAMDHWGQGISVIVSS VL: DIVMTQSPSSLTVTARERVSMTCKSSQSLFNSGNQRNYLTWYQQKPGQPPKLLIYWSSTRESGVPDRFTGSGSGTDFTLTISSVQAEDLAIYFCQNNYYYPFTFGSGTKLEIK
